B1: GALNT9 (parent)
chain: FTQSGPIVSRATGRCLEVEMSKDA
B2: RIT1 (parent)
chain: FHALVREIRRKEKEAVLAMEKKSK

Variants of: B1
Assay: protein stability index of a GFP-peptide fusion (GPS, HEK-293T) (PSI 1-6); higher = more stable
Settings: c terminus: a fixed tail appended
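Also: lentivirally expressed fusions sorted by FACS into six bins by GFP to DsRed ratio, PSI derived from sequencing read proportions per bin multiplied by bin number.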

Protein stability index: each site, then its substitutions
R14: E 3.03, H 2.06, P 3.1, I 2.78, S 1.98, K 1.95, C 1.78, A 2.84, L 1.9, Y 1.82, T 1.99, V 1.71, N 2.88, F 1.61
R10: D 3.87, Y 2.44, K 2.65, L 2.77, M 1.48, P 2.49, Q 3.02, E 3.91, N 2.01, A 2.41, T 2.5, S 3.5, C 2.33, H 2.37, V 2.6, I 1.53, F 1.41, G 2.89
E19: R 3.07, L 2.39, T 1.22, I 1.71, G 2.19, F 2.37, K 2.33, V 1.45, A 2.49, H 1.62, M 3.89, D 2.02, N 1.62, Y 1.53, P 2.57, S 1.35
A11: R 1.65, S 1.77, Y 3.67, G 1.95, T 2.24, K 1.83, I 1.67, D 3.15, F 1.06, M 1.73, P 2.31
C15: F 2.44, T 2.99, K 2.53, Y 3.04, N 3.75, I 2.7, M 2.78, Q 3.14, R 3.86, L 4.19, H 3.37, S 2.7, V 3.06, D 3.9, P 3.11
F1: E 4.08, K 3.17, Y 2.03, C 3.31, L 2, I 2, M 1.74, N 3.15, P 1.87, W 2.3, D 3.51, Q 2.98, H 2.93, G 3.15
T12: L 1.64, Y 2.47, S 1.78, R 2.04, E 3.19, N 2.4, V 1.51, A 3.14, Q 1.56, H 1.58, M 1.48, K 2.15, D 2.38, P 2.05, I 1.89
V8: S 3.41, Q 2.25, T 1.42, G 1.96, I 2.54, N 2.03, P 2.07, M 2.38, D 3.27, R 1.83, H 2.58, W 3.04, C 2.04
S9: A 4.78, E 2.2, H 1.67, L 2.43, T 1.92, M 2.28, C 2.17, P 2.05, F 2.88, N 2.06, G 2.76, D 2.99
Q3: N 1.24, K 2.54, S 2.48, G 1.73, P 1.34, R 1.48, M 3.03, H 2.04, W 1.51, L 1.84, F 2.34, D 1.83, T 1.94, A 2.01, Y 1.73, I 1.58, E 2.51
I7: Q 1.98, N 2.73, G 1.79, R 2.08, C 1.89, P 2.78, D 3.31, M 1.78, T 2.36, S 2.52, E 2.63, A 2.25, L 1.18, H 2.66
P6: C 1.72, N 1.07, E 1.85, M 3.4, T 1.42, D 2.08
K22: A 3.13
S4: E 2.3, K 1.88, H 1.91, G 2.01, Y 2.24, A 2.37, I 3.66, P 2, L 2.78, T 2.82, C 1.48, N 1.85, Q 2.35
E17: C 1.84, P 2.05, R 5.49, Y 3.5, V 1.24, D 1.91, G 2.09, F 3.92, Q 2.94, A 1.03, N 3.09, S 2.15, K 2.41
G5: A 1.81, I 1.64, Y 3.35, C 2.57, T 2.46, N 2.34, Q 2.37, V 2.39, F 2.62, S 2.54, L 1.53, D 2.74, R 1.66, H 2.42
V18: R 1.94, T 2.02, P 2.59, W 1.74, F 2.61, Q 2.31, N 2.55, M 1.92, E 1.01, Y 1.94, K 3.26, A 1.61, I 2.32, L 1.79, D 2.53, H 1.81
T2: Y 2.53, N 2.17, L 2.25, I 2.01, D 2.97, Q 2.35, S 2.71, K 1.72, R 1.75, C 2.96, F 3.05, A 1.92, E 3.58, W 1.43
S21: I 1.07, L 1.74, D 1.63, Q 1.34, C 1.47, E 2.71, H 1.76, N 1.79, P 2.55, K 1.82, G 1.21, V 2.05, F 1.86, R 3.38, T 2.15
L16: W 2.35, T 3.25, C 2.08, H 2.81, G 2.52, D 3.53, E 3.65, M 2.29, P 3.02, I 1.4, A 1.96, R 3.09, S 1.75, Q 2.81, N 3.04, F 2.37, K 2.27, V 2.33, Y 1.99
M20: H 2.65, E 3.66, I 2.28, Q 3.23, S 3.05, C 1.89, V 2.18, P 3.38, Y 2.46, A 3.61, K 2.32, T 3.24, L 3.75, W 1.55, D 4.53, R 2.73, N 3.34, G 3.21, F 1.93
G13: I 1.14, E 2.76, H 1.99, F 2.15, T 2.16, A 1.86, R 2.6, M 1.45, Q 1.55, P 1.81, N 2.41, V 1.81, S 1.76, Y 4.09, D 3.13, K 1.91

Variants of: B2
Assay: as above
Settings: c terminus: a fixed tail appended

Protein stability index, by site and new letter:
S23: V 1.33, Y 2.83, P 1.37, N 1.64, T 1.67, I 1.76, L 2.59, K 2.31, Q 2.22, M 1.82
K24: Q 1.23, Y 1.86, S 1.38, D 1.83, F 1.77, W 1.24, G 2.4, P 1.17, C 2.24, E 1.95, H 1.86, L 1.99, V 1.46, R 2.59, M 1.78, T 1.34, I 2.5, N 1.43, A 1.91

From the supplement of paper PMC10567573
